Kd, koff and kon data for one molecule are collected here from article PMC3212078, “Atomic Force Microscopy Study of Protein–Protein Interactions in the Cytochrome CYP11A1 (P450scc)-Containing Steroid Hydroxylase System” (Nanoscale Research Letters, 2010).

For test [1], the target named is T1, cytochrome CYP11A1 (P450scc) (bovine, UniProt P00189 40-520).
T1 construct: The same protein was used either untreated (oligomeric, non-monomerized) or after incubation with 4-12% Emulgen 913 (monomerized); the assays tell the two states apart; also called CYP11A1mon; monomerized CYP11A1; source: isolated from bovine adrenal glands
T1 sequence (looked up): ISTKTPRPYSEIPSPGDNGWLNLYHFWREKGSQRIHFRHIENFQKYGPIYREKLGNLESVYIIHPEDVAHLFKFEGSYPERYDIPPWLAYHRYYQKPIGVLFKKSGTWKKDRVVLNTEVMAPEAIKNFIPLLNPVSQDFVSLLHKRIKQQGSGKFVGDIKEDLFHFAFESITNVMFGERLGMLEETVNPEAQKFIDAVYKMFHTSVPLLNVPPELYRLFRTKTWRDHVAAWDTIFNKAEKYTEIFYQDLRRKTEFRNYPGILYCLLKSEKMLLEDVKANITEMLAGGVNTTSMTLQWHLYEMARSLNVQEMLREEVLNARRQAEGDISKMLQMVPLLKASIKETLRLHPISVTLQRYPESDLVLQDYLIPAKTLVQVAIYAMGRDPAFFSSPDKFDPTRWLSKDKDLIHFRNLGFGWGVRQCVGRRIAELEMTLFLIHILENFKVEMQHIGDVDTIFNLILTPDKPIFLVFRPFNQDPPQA
Nature of the test: SPR; Biacore 3000; about 400 RU Ad coupled by EDC/NHS to a CM5 chip; oligomeric (non-monomerized) CYP11A1 injected at 1-100 nM; 50 mM potassium phosphate pH 7.4 with 1% Emulgen 913; 1:1 Langmuir model. The following applies: both partners purified.

Test [2] has as its target T1, cytochrome CYP11A1 (P450scc). Nature of the test: SPR; Biacore 3000; about 400 RU Ad coupled by EDC/NHS to a CM5 chip; monomeric (Emulgen 913-monomerized) CYP11A1 injected at 1-100 nM; 50 mM potassium phosphate pH 7.4 with 1% Emulgen 913; 1:1 Langmuir model. The following applies: both partners purified.

B1: adrenodoxin (natural protein, UniProt P00257 59-186, looked up)
chain: SSSEDKITVHFINRDGETLTTKGKIGDSLLDVVVQNNLDIDGFGACEGTLACSTCHLIFEQHIFEKLEAITDEENDMLDLAYGLTDRSRLGCQICLTKAMDNMTVRVPDAVSDARESIDMGMNSSKIE
notes: adrenodoxin (Ad), recombinant; source: E. coli BL21DE3, purified after sonification
B1: in test [1], the Kd (commonly the concentration at which binding is half-saturated) stood at 210 ± 20 nM; the koff (in general, a measure of how fast the partners let go of each other) worked out at 0.09 ± 0.009 s⁻¹; the association rate constant (kon) (commonly the second-order rate constant of association) stood at 420000 M⁻¹ s⁻¹. In test [2], this molecule returned a Kd of 170 ± 15 nM, an off-rate constant (koff) of 0.05 ± 0.005 s⁻¹ and a kon of 290000 M⁻¹ s⁻¹.
